Measured values published in patent US11969464B2, “Amidated peptides and their deamidated counterparts displayed by HLA-A*02 for use in immunotherapy against different types of cancers” (Immatics Biotechnologies GmbH, priority 2020, dated 2024).

Tests used:
HLA-A*02:01 = HLA-A*02:01 (Homo sapiens, UniProt P04439, D140Y/D185E/D98H/E176V/E277Q/G131W/G231S/I119V/I121R/I166T/I218V/L300P/L318F/N151K/N90K/P208A/P217A/Q86G/Q94H/R138H/R169H/T345S); experiment: MHC binding assay (UV-ligand exchange, anti-β2m ELISA); details: peptide exchange yield, binding to HLA-A*02:01
Text: Candidate peptides for T cell based therapies according to the present invention were further tested for their MHC binding capacity (affinity). The individual peptide-MHC complexes were produced by UV-ligand exchange, where a UV-sensitive peptide is cleaved upon UV-irradiation and exchanged with the peptide of interest as analyzed. Only peptide candidates that can effectively bind and stabilize the peptide-receptive MHC molecules prevent dissociation of the MHC complexes. To determine the yield of the exchange reaction, an ELISA was performed based on the detection of the light chain (β2m) of stabilized MHC complexes. The assay was performed as generally described in Rodenko et al. (Rodenko et al., 2006).
96 well MAXISorp plates (NUNC) were coated over night with 2 μg/ml streptavidin in PBS at room temperature, washed 4× and blocked for 1 h at 37° C. in 2% BSA containing blocking buffer. Refolded HLA-A*02:01/MLA-001 monomers served as standards, covering the range of 15-500 ng/ml. Peptide-MHC monomers of the UV-exchange reaction were diluted 100-fold in blocking buffer. Samples were incubated for 1 h at 37° C., washed four times, incubated with 2 μg/ml HRP conjugated anti-β2m for 1 h at 37° C., washed again and detected with TMB solution that is stopped with […]. Absorption was measured at 450 nm. Candidate peptides that show a high exchange yield (preferably higher than 50%, most preferred higher than 75%) are generally preferred for a generation and production of antibodies or fragments thereof, and/or T cell receptors or fragments thereof, as they show sufficient avidity to the MHC molecules and prevent dissociation of the MHC complexes.

CD8+ T cells = experiment: In vitro T cell priming assay with aAPCs loaded with peptide/MHC complexes and anti-CD28, pMHC multimer readout; format: cell-based, human; details: percentage of positive wells and donors (among evaluable), healthy HLA-A*02+ donors
Text: In order to obtain information regarding the immunogenicity of the TUMAPs of the present invention, the inventors performed investigations using an in vitro T cell priming assay based on repeated stimulations of CD8+ T cells with artificial antigen presenting cells (aAPCs) loaded with peptide/MHC complexes and anti-CD28 antibody.
In order to perform in vitro stimulations by artificial antigen presenting cells loaded with peptide-MHC complex (pMHC) and anti-CD28 antibody, the inventors first isolated CD8+ T cells from fresh HLA-A*02 leukapheresis products via positive selection using CD8 microbeads (Miltenyi Biotec, Bergisch-Gladbach, Germany) of healthy donors obtained from the University clinics Mannheim, Germany, after informed consent.
PBMCs and isolated CD8+ lymphocytes were incubated in T cell medium (TCM) until use consisting of RPMI-Glutamax (Invitrogen, Karlsruhe, Germany) supplemented with 10% heat inactivated human AB serum (PAN-Biotech, Aidenbach, Germany), 100 U/ml Penicillin/100 μg/ml Streptomycin (Cambrex, Cologne, Germany), 1 mM sodium pyruvate (CC Pro, Oberdorla, Germany), 20 μg/ml Gentamycin (Cambrex). 2.5 ng/ml IL-7 (PromoCell, Heidelberg, Germany) and 10 U/ml IL-2 (Novartis Pharma, Nurnberg, Germany) were also added to the TCM at this step.
Generation of pMHC/anti-CD28 coated beads, T cell stimulations and readout was performed in a highly defined in vitro system using four different pMHC molecules per stimulation condition and 8 different pMHC molecules per readout condition.
The purified co-stimulatory mouse IgG2a anti human CD28 Ab 9.3 (Jung et al., 1987) was chemically biotinylated using Sulfo-N-hydroxysuccinimidobiotin as recommended by the manufacturer (Perbio, Bonn, Germany). Beads used were 5.6 μm diameter streptavidin coated polystyrene particles (Bangs Laboratories, Illinois, USA).
800.000 beads/200 μl were coated in 96-well plates in the presence of 4×12.5 ng different biotin-pMHC, washed and 600 ng biotin anti-CD28 were added subsequently in a volume of 200 μl. Stimulations were initiated in 96-well plates by co-incubating 1×10^6 CD8+ T cells with 2×10^5 washed coated beads in 200 μl TCM supplemented with 5 ng/ml IL-12 (PromoCell) for 3 days at 37° C. Half of the medium was then exchanged by fresh TCM supplemented with 80 U/ml IL-2 and incubating was continued for 4 days at 37° C. This stimulation cycle was performed for a total of three times. For the pMHC multimer readout using 8 different pMHC molecules per condition, a two-dimensional combinatorial coding approach was used as previously described (Andersen et al., 2012) with minor modifications encompassing coupling to 5 different fluorochromes. Finally, multimeric analyses were performed by staining the cells with Live/dead near IR dye (Invitrogen, Karlsruhe, Germany), CD8-FITC antibody clone SK1 (BD, Heidelberg, Germany) and fluorescent pMHC multimers. For analysis, a BD LSRII SORP cytometer equipped with appropriate lasers and filters was used. Peptide specific cells were calculated as percentage of total CD8+ cells. Evaluation of multimeric analysis was done using the FlowJo software (Tree Star, Oregon, USA). In vitro priming of specific multimer+CD8+ lymphocytes was detected by comparing to negative control stimulations.

Peptide exchange (HLA-A*02:01) | Substance | Wells positive [%] (CD8+ T cells)
++++ (≥75% = ++++) | 100 (SLLFQDITL; peptide displayed by HLA-A*02) [compound 100] | + (<20% = +)
++++ (≥75% = ++++) | 65 (ILLDKSTVL; peptide displayed by HLA-A*02) [compound 65] | + (<20% = +)
+++ (≥50% = +++) | 6 (NLYNDLTNV; peptide displayed by HLA-A*02) [compound 6] | + (<20% = +)
+++ (≥50% = +++) | 97 (KLLDGSQRV; peptide displayed by HLA-A*02) [compound 97] | + (<20% = +)
+++ (≥50% = +++) | 8 (KLAPDLTEL; peptide displayed by HLA-A*02) [compound 8] | + (<20% = +)
++++ (≥75% = ++++) | 7 (ALADLTGTV; peptide displayed by HLA-A*02) [compound 7] | + (<20% = +)
++++ (≥75% = ++++) | 76 (SLLRDFTLV; peptide displayed by HLA-A*02) [compound 76] | + (<20% = +)
+++ (≥50% = +++) | 47 (VIDSTLVKV; peptide displayed by HLA-A*02) [compound 47] | ++ (20%-49% = ++)
++++ (≥75% = ++++) | 101 (TLDATVVEL; peptide displayed by HLA-A*02) [compound 101] | ++ (20%-49% = ++)
+++ (≥50% = +++) | 98 (NLLADVSTV; peptide displayed by HLA-A*02) [compound 98] | + (<20% = +)
++++ (≥75% = ++++) | 96 (KLDASLPAL; peptide displayed by HLA-A*02) [compound 96] | + (<20% = +)
